How the values were obtained:
[1] = biological target: T1, PACAP38 (Pituitary Adenylate Cyclase-Activating Polypeptide, 38 amino acids) (human, not fully specified; the C-terminal lysine is amidated); experiment: inhibition of 100 nM biotinylated PACAP38 binding to PAC1-R-expressing PC-12 cells, Eu-streptavidin TRF
T1 construct: In the HTRF and PC-12 cell assays the peptide was N-terminally or C-terminally biotinylated; unlabelled in SPR; also called human PACAP38; huPACAP (1-38)
T1 peptide: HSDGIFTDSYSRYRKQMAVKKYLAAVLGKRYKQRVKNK
Protocol: (§1) To identify antibodies that block PACAP38 binding to PAC1-R-expressing cells, adherent PC-12 cells (ATCC, Manassas, VA) expressing PAC1-R were used in a Europium-based PAC1-R-expressing cells binding assay. Antibody solutions were incubated with N-terminal biotinylated PACAP38 at 10× the final concentration (100 nM or 30 nM) for 1 hr, then added to PC-12 cells that were plated 24 hrs prior in black clear bottom 96 well plates (COSTAR™, Corning Incorporated, Corning, NY) and further incubated for 1 hr at room temperature. After three washes, the cells were incubated with 20 μl Europium-labeled streptavidin (PerkinElmer, Waltham, MA) for 1 hr at room temperature. Cells were washed three times, then 20 μl DELFIA® Enhancement solution (PerkinElmer, Waltham, MA) was added to each well and incubated for 15 minutes with gentle shaking. Plates were read (Time Resolved Fluorescence (“TRF”)) on SPECTRAMAX® (Molecular Devices, Sunnyvale, CA) plate reader.
(§2) FIGS. 14A-14H are representative of the inhibition curves obtained by this method (results are shown for Ab10, Ab20, Ab21, Ab1.H, Ab10.H, Ab21.H, Ab22, and Ab23, respectively) wherein the PAC1-R expressing cells were PC-12 cells.

[2] = biological target: T2, VIP (Vasoactive Intestinal Peptide) (human); experiment: SPR (ProteOn XPR36), antibody amine-coupled, peptide analyte, 1:1 Langmuir fit; SPR, direct binding of VIP to the antibody; weak, KD 2.8E-07 M
T2 construct: also called human VIP
T2 peptide: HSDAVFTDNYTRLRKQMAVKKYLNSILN

[3] = biological target: T1, PACAP38 (Pituitary Adenylate …); experiment: HTRF binding assay, antibody dilution series on 35 nM biotinylated PACAP38
Protocol: In parallel, 10 μl of an antibody dilution series (highest final concentration of 100 nM) were incubated with 10 μl of N-terminal or C-terminal biotinylated PACAP38 (35 nM final) alone, or in combination with either PACAP27 (350 nM final) or VIP (350 nM final), i.e., 10× PACAP27 or 10× VIP, respectively, in a HTRF plate. 20 μl of Eu³⁺ cryptate labeled anti-hu Fc donor and 20 μl of d2-labeled streptavidin acceptor were added to each well and incubated for 1 hour at room temperature. Fluorescence was measured at 620 and 665 nm with a delay of 300 usec.
EC₅₀ values, i.e. the concentration of an antibody that yields a response halfway between the baseline and the maximum value within a specified time period, were computed for each antibody based upon their binding curves and are shown in Table 1 below. […] A humanized form of antibody Ab1 identified by an appended “.H”, i.e., Ab1.H also bound PACAP38 with high affinity.

[4] = biological target: T3, PACAP27 (Pituitary Adenylate Cyclase-Activating Polypeptide, 27 amino acids) (human, the C-terminal leucine is amidated); experiment: inhibition of 0.1 nM 125I-PACAP27 binding to membranes with human PAC1-R long isoform, filter binding
T3 construct: also called human PACAP27
T3 peptide: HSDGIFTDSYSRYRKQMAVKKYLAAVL
Protocol: To identify antibodies that block PACAP27 binding to PAC1-R, antibodies at an initial concentration of 30 nM were diluted in incubation buffer (50 mM Hepes pH 7.4, 1 mM CaCl₂, 5 mM MgCl₂, 0.2% BSA) and serial 1:3 dilutions were performed. Antibody dilutions (30 nM, 10 nM, 3 nM, 1 nM, 0.3 nM, 0.1 nM, 0.03 nM, 0.01 nM, 0.003 nM and 0.001 nM) were then mixed and pre-incubated at 25° C. for 30 minutes with 0.1 nM of ¹²⁵I-labelled PACAP27 in incubation buffer. The antibody: ¹²⁵I-labelled PACAP27 mixture was then added to 0.5 μg aliquots of cell membranes derived from Chem-1 cells expressing human recombinant PAC1-R long isoform in incubation buffer. The mixture was then incubated for 1 hour at 25° C. Following incubation, the samples were filtered and washed. Afterward, the filters were counted to quantitate ¹²⁵I-labelled PACAP27. As an experimental control, non-specific binding to the cell membranes was estimated using 0.1 μM of […] PACAP27.

[5] = biological target: T2, VIP (Vasoactive Intestinal Peptide); experiment: SPR (ProteOn XPR36), antibody amine-coupled, peptide analyte, 1:1 Langmuir fit
[6] = biological target: T1, PACAP38 (Pituitary Adenylate …); experiment: inhibition of 30 nM biotinylated PACAP38 binding to PAC1-R-expressing PC-12 cells, Eu-streptavidin TRF
Protocol: as §1, §2

[7] = biological target: T2, VIP (Vasoactive Intestinal Peptide); experiment: SPR (ProteOn XPR36), antibody amine-coupled, peptide analyte, 1:1 Langmuir fit; SPR, direct binding of VIP to the antibody; weak, KD 1.1E-06 M

B1: Ab10 (antibody, human IgG1, kappa, N297A, V domains shown)
VH: QSVEESGGRLVTPGTPLTLTCTVSGIDLNSYYMTWVRQAPGKGLEWIGFIDAGGDAYYASWAKGRFTISKTSTTVDLKITSPTTEDTATYFCARDLDLWGQGTLVTVSS
VL: AAVLTQTPSPVSAAVGGTVTINCQSSESVYGNYLAWFQQKPGQPPKLLIYEASKLESGVPSRFSGSGSGTQFTLTISDLQCDDAATYYCAGGDISEGVAFGGGTEVVVKR
notes: Full-length anti-PACAP antibody; rabbit variable regions cloned onto human constant regions (rabbit/human chimeric), expressed in HEK-293
IC50 [1]: 17.8 nM | Kd [2]: 280 nM | koff [2]: 0.01 s⁻¹ | kon [2]: 37000 M⁻¹ s⁻¹ | EC50 [3]: 0.36 nM

B2: Ab10.H (antibody, human IgG1, kappa, N297A)
heavy: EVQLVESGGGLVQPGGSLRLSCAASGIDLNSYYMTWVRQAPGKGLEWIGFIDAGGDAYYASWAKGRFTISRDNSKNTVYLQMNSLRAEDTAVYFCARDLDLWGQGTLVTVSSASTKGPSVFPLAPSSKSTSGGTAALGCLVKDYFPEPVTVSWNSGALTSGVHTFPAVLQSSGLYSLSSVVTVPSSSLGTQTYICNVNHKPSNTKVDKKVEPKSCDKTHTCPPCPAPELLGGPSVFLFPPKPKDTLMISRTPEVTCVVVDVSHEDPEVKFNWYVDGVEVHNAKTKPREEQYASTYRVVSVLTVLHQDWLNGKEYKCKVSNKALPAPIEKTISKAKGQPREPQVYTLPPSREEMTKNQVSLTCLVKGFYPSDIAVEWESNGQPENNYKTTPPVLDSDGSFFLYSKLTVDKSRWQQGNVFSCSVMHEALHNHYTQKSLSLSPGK
light: DAQLTQSPSTLSASVGDRVTITCQSSESVYGNYLAWFQQKPGKAPKFLIYEASKLESGVPSRFSGSGSGTEFTLTISSLQPDDFATYYCAGGDISEGVAFGGGTKVEIKRTVAAPSVFIFPPSDEQLKSGTASVVCLLNNFYPREAKVQWKVDNALQSGNSQESVTEQDSKDSTYSLSSTLTLSKADYEKHKVYACEVTHQGLSSPVTKSFNRGEC
notes: Full-length humanized variant of Ab10
IC50 [4]: 0.22 nM | Kd [5]: 100 nM | koff [5]: 0.039 s⁻¹ | kon [5]: 380000 M⁻¹ s⁻¹ | IC50 [6]: 14.5 nM

B3: Ab20 (antibody, human IgG1, kappa, N297A, V domains shown)
VH: QSVEESGGRLVTPGTPLTLTCTVSGIDLSSYYMSWVRQAPGKGLEWIGFIDTDGSAYYATWAKGRFTISKTSTTVDLKITSPTTEDTATYFCARDLDLWGPGTLVTVSS
VL: AAVLTQTPSPVSAAVGGTVSISCQSSESVYSNYLAWFQQKPGQPPKFLIYEASKLASGVPSRFKGSGSGTQFTLTISDVQCDDAGTYYCAGGYSSEGVAFGGGTEVVVKR
notes: Full-length anti-PACAP antibody; rabbit/human chimeric
IC50 [1]: 32.7 nM | Kd [7]: 1100 nM | koff [7]: 0.48 s⁻¹ | kon [7]: 450000 M⁻¹ s⁻¹ | EC50 [3]: 0.38 nM
